Laboratory results taken from publication PMC9482650, “Quantitative fragmentomics allow affinity mapping of interactomes” (Nature Communications, 2022).
Substitutions are numbered along the chain they refer to.

Columns and labels:
Assay in all cases: holdup assay
Parameters in all cases: key: below the threshold = too weak to quantify, mostly under pKd 3.1 to 4
Details in all cases: plain residues with an end cap or a label only (N-terminal biotin on a linker: ado-ado)
[1] = molecular target: T1, ARHGAP21, Q5T5U3
T1 sequence (Q5T5U3 45-169, limits assumed, looked up): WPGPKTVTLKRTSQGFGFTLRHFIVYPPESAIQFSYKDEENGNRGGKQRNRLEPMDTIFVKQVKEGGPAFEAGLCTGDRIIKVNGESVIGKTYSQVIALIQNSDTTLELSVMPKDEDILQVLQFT

[2] = molecular target: T2, HTRA4, P83105
T2 sequence (P83105 378-476, limits assumed, looked up): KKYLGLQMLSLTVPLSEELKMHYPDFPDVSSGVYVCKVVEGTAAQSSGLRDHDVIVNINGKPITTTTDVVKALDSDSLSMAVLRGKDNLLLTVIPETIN

[3] = molecular target: T3, MPDZ_5, O75970
T3 sequence (O75970 695-796, limits assumed, looked up): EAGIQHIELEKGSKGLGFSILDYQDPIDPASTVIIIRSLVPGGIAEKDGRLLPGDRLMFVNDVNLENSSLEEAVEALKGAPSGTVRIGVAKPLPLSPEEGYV

[4] = molecular target: MAGI2_3, Q86UL8
[5] = molecular target: T4, PCLO, Q9Y6V0
T4 sequence (Q9Y6V0 4491-4600, limits assumed, looked up): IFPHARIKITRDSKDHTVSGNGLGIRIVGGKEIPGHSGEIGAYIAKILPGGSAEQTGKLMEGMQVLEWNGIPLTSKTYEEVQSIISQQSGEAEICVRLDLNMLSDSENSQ

[6] = molecular target: T5, MPP7, Q5T2T1
T5 sequence (Q5T2T1 134-230, limits assumed, looked up): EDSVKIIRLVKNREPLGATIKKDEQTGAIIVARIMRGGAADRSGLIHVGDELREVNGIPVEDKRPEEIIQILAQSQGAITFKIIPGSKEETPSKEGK

[7] = molecular target: T6, MPP2, Q14168
T6 sequence (Q14168 180-250, limits assumed, looked up): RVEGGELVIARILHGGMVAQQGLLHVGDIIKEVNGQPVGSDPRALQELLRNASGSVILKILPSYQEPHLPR

[8] = molecular target: MAGI3_2, Q5TCQ9
[9] = molecular target: T7, MPDZ_10, O75970
T7 sequence (O75970 1624-1722, limits assumed, looked up): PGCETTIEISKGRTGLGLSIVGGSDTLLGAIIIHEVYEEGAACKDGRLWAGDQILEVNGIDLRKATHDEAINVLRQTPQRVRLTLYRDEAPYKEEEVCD

[10] = molecular target: T8, SNTG2, Q9NY99
T8 sequence (Q9NY99 68-166, limits assumed, looked up): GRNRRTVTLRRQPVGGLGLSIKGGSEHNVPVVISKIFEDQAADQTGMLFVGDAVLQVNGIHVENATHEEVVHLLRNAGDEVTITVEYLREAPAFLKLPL

[11] = molecular target: MAGI2_6, Q86UL8
[12] = molecular target: NHERF2_2, Q15599
[13] = molecular target: DLG1_1, Q12959
[14] = molecular target: T9, APBA1_2, Q02410
T9 sequence (Q02410 742-832, limits assumed, looked up): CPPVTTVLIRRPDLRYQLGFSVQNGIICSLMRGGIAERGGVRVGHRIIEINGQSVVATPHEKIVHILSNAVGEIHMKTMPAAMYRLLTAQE

[15] = molecular target: SCRIB_2, Q14160
[16] = molecular target: NHERF4_2, Q86UT5
[17] = molecular target: GRIP2_3, Q9C0E4
[18] = molecular target: IL16_1, Q14005
[19] = molecular target: GRIP2_4, Q9C0E4
[20] = molecular target: LAP2, Q96RT1
[21] = molecular target: T10, MPP6, Q9NZW5
T10 sequence (Q9NZW5 125-219, limits assumed, looked up): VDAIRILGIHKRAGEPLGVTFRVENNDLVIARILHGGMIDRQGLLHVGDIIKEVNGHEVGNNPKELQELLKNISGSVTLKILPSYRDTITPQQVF

[22] = molecular target: GRIP2_5, Q9C0E4
[23] = molecular target: T11, GRIP1_7, Q9Y3R0
T11 sequence (Q9Y3R0 999-1096, limits assumed, looked up): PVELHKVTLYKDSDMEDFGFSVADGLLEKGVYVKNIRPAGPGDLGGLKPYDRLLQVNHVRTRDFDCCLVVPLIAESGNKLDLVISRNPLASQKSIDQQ

[24] = molecular target: T12, APBA2_2, Q99767
T12 sequence (Q99767 654-744, limits assumed, looked up): T9 sequence (Q02410 742-832, limits assumed, looked up) with R10K, R15K, P59A, H65Q, I66A, A70S, Y84F, A89G

[25] = molecular target: LNX1_1, Q8TBB1
[26] = molecular target: DLG1_3, Q12959

MAGI2_3, Q86UL8, sequence (Q86UL8 600-682): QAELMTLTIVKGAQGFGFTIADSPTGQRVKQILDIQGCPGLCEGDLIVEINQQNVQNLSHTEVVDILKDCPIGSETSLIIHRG
GRIP2_5, Q9C0E4, sequence (Q9C0E4 544-642): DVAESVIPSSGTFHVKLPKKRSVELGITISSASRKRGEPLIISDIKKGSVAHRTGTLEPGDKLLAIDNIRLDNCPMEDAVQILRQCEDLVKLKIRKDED
GRIP2_4, Q9C0E4, sequence (Q9C0E4 446-548): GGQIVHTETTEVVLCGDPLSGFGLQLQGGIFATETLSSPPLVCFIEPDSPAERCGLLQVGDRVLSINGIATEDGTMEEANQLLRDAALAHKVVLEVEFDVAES
NHERF4_2, Q86UT5, sequence (Q86UT5 220-308): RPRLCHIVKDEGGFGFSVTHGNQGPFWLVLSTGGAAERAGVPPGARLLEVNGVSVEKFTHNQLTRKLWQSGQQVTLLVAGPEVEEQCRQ
SCRIB_2, Q14160, sequence (Q14160 857-960): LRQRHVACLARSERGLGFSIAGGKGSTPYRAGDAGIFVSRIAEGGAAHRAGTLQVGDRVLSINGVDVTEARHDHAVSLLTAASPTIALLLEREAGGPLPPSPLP
MAGI2_6, Q86UL8, sequence (Q86UL8 1141-1229): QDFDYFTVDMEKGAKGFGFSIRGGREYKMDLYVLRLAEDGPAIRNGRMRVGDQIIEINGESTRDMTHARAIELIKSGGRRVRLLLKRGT
NHERF2_2, Q15599, sequence (Q15599 142-238): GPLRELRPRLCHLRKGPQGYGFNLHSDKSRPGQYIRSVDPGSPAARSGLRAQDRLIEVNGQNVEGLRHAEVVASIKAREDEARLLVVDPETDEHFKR
GRIP2_3, Q9C0E4, sequence (Q9C0E4 238-339): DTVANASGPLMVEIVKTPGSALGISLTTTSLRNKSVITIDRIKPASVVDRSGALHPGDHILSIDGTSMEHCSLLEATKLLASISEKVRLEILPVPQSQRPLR
LAP2, Q96RT1, sequence (Q96RT1 other isoform, or with tags, fused parts or gaps): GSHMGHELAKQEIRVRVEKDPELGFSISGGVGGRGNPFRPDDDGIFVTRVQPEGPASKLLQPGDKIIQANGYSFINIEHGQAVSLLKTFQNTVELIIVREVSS
MAGI3_2, Q5TCQ9, sequence (Q5TCQ9 398-503): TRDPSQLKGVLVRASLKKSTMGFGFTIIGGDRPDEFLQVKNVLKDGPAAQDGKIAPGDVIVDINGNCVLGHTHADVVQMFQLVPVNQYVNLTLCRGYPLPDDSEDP
LNX1_1, Q8TBB1, sequence (Q8TBB1 261-371): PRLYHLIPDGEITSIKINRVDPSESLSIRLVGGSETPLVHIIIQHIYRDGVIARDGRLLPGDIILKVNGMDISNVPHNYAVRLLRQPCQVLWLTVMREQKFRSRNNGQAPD
IL16_1, Q14005, sequence (Q14005 210-306): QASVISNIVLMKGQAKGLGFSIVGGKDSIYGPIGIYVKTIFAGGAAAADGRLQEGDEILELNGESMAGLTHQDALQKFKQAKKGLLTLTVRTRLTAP

For AEDEEIQTKM [UNC93A, Q86WB7], the pKd [1] was 3.9, the pKd [2] was 3.8 and the pKd [3] was “below the threshold”. For the same binder, the pKd [4] was “below the threshold”, the pKd [5] was “below the threshold” and the pKd [6] was “below the threshold”. The pKd [7] was “below the threshold”, the pKd [8] was “below the threshold” and the pKd [9] was “below the threshold”. The pKd [10] was “below the threshold”, the pKd [11] was “below the threshold” and the pKd [12] was 4.81. For the same binder, the pKd [13] was “below the threshold”, the pKd [14] was “below the threshold” and the pKd [15] was “below the threshold”. For the same binder, the pKd [16] was “below the threshold”, the pKd [17] was “below the threshold” and the pKd [18] was “below the threshold”. For the same binder, the pKd [19] was “below the threshold”, the pKd [20] was “below the threshold” and the pKd [21] was “below the threshold”. The pKd [22] was “below the threshold”, the pKd [23] was “below the threshold” and the pKd [24] was “below the threshold”. For the same binder, the pKd [25] was “below the threshold” and the pKd [26] was “below the threshold”.

In the case of GDGLDDEIAV [NOS1AP, O75052], the pKd [1] is reported as 4.51, the pKd [2] is reported as 3.9 and the pKd [3] is reported as “below the threshold”. The pKd [4] was “below the threshold”, the pKd [5] was “below the threshold” and the pKd [6] was “below the threshold”. For the same binder, the pKd [7] was “below the threshold”, the pKd [8] was 3.98 and the pKd [9] was “below the threshold”. For the same binder, the pKd [10] was “below the threshold”, the pKd [11] was “below the threshold” and the pKd [12] was “below the threshold”. For the same binder, the pKd [13] was “below the threshold”, the pKd [14] was “below the threshold” and the pKd [15] was “below the threshold”. For the same binder, the pKd [16] was “below the threshold”, the pKd [17] was “below the threshold” and the pKd [18] was “below the threshold”. For the same binder, the pKd [19] was “below the threshold”, the pKd [20] was 3.67 and the pKd [21] was “below the threshold”. For the same binder, the pKd [22] was “below the threshold”, the pKd [23] was “below the threshold” and the pKd [24] was “below the threshold”. The pKd [25] was “below the threshold” and the pKd [26] was “below the threshold”.

SVISRREWYV [NECTIN3, Q9NQS3] showed a pKd [1] of 4.29, a pKd [2] of 3.86 and a pKd [3] of 5.19. The pKd [4] was “below the threshold”, the pKd [5] was “below the threshold” and the pKd [6] was 4.93. The pKd [7] was 4.57, the pKd [8] was 5.74 and the pKd [9] was “below the threshold”. The pKd [10] was “below the threshold”, the pKd [11] was 3.76 and the pKd [12] was “below the threshold”. For the same binder, the pKd [13] was “below the threshold”, the pKd [14] was 3.85 and the pKd [15] was “below the threshold”. For the same binder, the pKd [16] was “below the threshold”, the pKd [17] was “below the threshold” and the pKd [18] was 3.88. The pKd [19] was “below the threshold”, the pKd [20] was 3.59 and the pKd [21] was 4.48. For the same binder, the pKd [22] was “below the threshold”, the pKd [23] was 5.11 and the pKd [24] was “below the threshold”. For the same binder, the pKd [25] was “below the threshold” and the pKd [26] was “below the threshold”.

In the case of QNRIITKTDV [SMCHD1, A6NHR9], the pKd [1] is reported as 4.04, the pKd [2] is reported as “below the threshold” and the pKd [3] is reported as “below the threshold”. The pKd [4] was “below the threshold”, the pKd [5] was “below the threshold” and the pKd [6] was “below the threshold”. The pKd [7] was “below the threshold”, the pKd [8] was 4.15 and the pKd [9] was 3.97. The pKd [10] was “below the threshold”, the pKd [11] was “below the threshold” and the pKd [12] was “below the threshold”. For the same binder, the pKd [13] was 3.63, the pKd [14] was 3.9 and the pKd [15] was “below the threshold”. For the same binder, the pKd [16] was “below the threshold”, the pKd [17] was “below the threshold” and the pKd [18] was “below the threshold”. The pKd [19] was “below the threshold”, the pKd [20] was “below the threshold” and the pKd [21] was “below the threshold”. For the same binder, the pKd [22] was “below the threshold”, the pKd [23] was “below the threshold” and the pKd [24] was “below the threshold”. The pKd [25] was 3.7 and the pKd [26] was “below the threshold”.
